Ends that are not written are not given here.
Target: T1, Kelch domain of Keap1
T1 construct: Keap1, Kelch domain; The Kelch domain is named for the phage selection; the SPR sentences say only 'Keap1'
Assay: SPR; Keap1 with oxidized peptides, concentration-dependent
Conditions: both partners purified

B1: drp5-a (peptide)
chain: CPPCHGRPTCDEETGECWELLTCPPC
modifications: disulfide (positions not given here); also: oxidized (disulfides), pairing of this isomer not given here
Q: Which Kd does the source give for B1 here?
A: 153 nM
